We go through 1 substance from patent US20190248924A1.

This experiment deals with human CTLA-4Ig (R&D Systems) (human) (UniProt P16410). The experiment in a line: ELISA, human CTLA-4Ig immobilized on the plate, detection with anti-human Fab-HRP, OD450; unit taken from the x axis; fit value of a flat control curve, far beyond the range tested. On the technique in general: ELISA stands for enzyme-linked immunosorbent assay.

What is called EC50 is the concentration needed to bring the measured effect to its halfway point. Lower therefore signals an effect from little substance.

Sequence of UniProt P16410 (P16410 37-162): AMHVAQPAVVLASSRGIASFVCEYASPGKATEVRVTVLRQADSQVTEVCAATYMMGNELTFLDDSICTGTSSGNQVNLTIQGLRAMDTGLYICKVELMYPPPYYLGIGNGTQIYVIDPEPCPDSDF

hIgG Control (antibody) gave an EC50 of 51.3 µM.
